Here are results for 13 molecules from paper PMC12167799, “The role of human Shu complex in ATP-dependent regulation of RAD51 filaments during homologous recombination–associated DNA damage response”.

Data set [1] has as its target T1, RAD51 (Homo sapiens, UniProt Q06609 1-339). Briefly: DNase I protection; 2 mM ATP; FPA: 5 nM 6-FAM DNA, 37 C, 2 mM nucleotide where stated (buffer not given in material); EMSA: 0.05 uM 6-FAM DNA, 5%/15% native PAGE; RAD51 filaments: 2 mM ATP. Conditions: protein: recombinant, tags: none, chain copies: 10. Background: A gel shift assay detects complexes by their altered migration in electrophoresis.

The target in data set [2] is RAD51;SWSAP1 (hSWS1-SWSAP1, WT);hSWS1 (Homo sapiens;Homo sapiens;Homo sapiens, UniProt Q06609;Q6NVH7;Q19AV6 1-339;22-250;1-140, ||). In words: DNase I protection; 2 mM ATP; Shu increases digestion of filament; FPA: 5 nM 6-FAM DNA, 37 C, 2 mM nucleotide where stated (buffer not given in material); EMSA: 0.05 uM 6-FAM DNA, 5%/15% native PAGE; RAD51 filaments: 2 mM ATP. Conditions: protein: recombinant;recombinant;recombinant, tags: none;N-terminal 6xHis-TEV, cleaved;none.

Data set [3] addresses T2, SWSAP1 (hSWS1-SWSAP1, WT);hSWS1 (Homo sapiens;Homo sapiens, UniProt Q6NVH7;Q19AV6 22-250;1-140, |).
T2 sequence 1: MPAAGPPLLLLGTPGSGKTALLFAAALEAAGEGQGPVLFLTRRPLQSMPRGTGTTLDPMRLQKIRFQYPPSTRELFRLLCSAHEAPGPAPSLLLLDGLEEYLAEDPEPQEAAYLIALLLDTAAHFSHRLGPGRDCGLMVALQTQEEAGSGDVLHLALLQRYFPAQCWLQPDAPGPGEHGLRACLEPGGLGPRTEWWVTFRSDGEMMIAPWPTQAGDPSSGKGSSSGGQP
T2 sequence 2: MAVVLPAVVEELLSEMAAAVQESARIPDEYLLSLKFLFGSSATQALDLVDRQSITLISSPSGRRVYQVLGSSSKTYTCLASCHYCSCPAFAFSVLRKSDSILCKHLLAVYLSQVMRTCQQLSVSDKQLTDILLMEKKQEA
In words: fluorescence polarization; no nucleotide; FPA: 5 nM 6-FAM DNA, 37 C, 2 mM nucleotide where stated (buffer not given in material); EMSA: 0.05 uM 6-FAM DNA, 5%/15% native PAGE; RAD51 filaments: 2 mM ATP. As to conditions: protein: recombinant;recombinant, tags: N-terminal 6xHis-TEV, cleaved;none, copies: 1;1.

Data set [4] deals with T2, SWSAP1 (hSWS1-SWSAP1, WT);hSWS1. Briefly: fluorescence polarization; 2 mM ATP; FPA: 5 nM 6-FAM DNA, 37 C, 2 mM nucleotide where stated (buffer not given in material); EMSA: 0.05 uM 6-FAM DNA, 5%/15% native PAGE; RAD51 filaments: 2 mM ATP. Conditions: protein: recombinant;recombinant, tags: N-terminal 6xHis-TEV, cleaved;none, copies: 1;1. In general terms: In fluorescence polarisation assays a small probe gives low polarisation when free and higher when bound to something large.

Data set [5] addresses T3, SWSAP1 D96A (Walker B);hSWS1 (Homo sapiens;Homo sapiens, UniProt Q6NVH7;Q19AV6 22-250;1-140, D117A|).
T3 sequence 1: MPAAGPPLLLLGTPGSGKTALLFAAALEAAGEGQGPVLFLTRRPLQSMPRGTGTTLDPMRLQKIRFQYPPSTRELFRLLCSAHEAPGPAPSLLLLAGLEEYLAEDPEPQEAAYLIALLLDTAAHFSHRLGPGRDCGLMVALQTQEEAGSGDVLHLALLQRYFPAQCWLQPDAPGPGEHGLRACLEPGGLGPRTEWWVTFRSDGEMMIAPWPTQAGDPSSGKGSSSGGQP
T3 sequence 2: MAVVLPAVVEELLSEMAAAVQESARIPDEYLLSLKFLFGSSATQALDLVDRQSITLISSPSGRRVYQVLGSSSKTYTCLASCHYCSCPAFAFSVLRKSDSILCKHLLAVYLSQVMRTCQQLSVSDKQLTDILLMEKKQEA
The description is as above. Conditions: protein: recombinant;recombinant, tags: N-terminal 6xHis-TEV, cleaved;none, copies: 1;1.

Data set [6] addresses T4, SWSAP1 K18A (Walker A);hSWS1 (Homo sapiens;Homo sapiens, UniProt Q6NVH7;Q19AV6 22-250;1-140, K39A|).
T4 sequence 1: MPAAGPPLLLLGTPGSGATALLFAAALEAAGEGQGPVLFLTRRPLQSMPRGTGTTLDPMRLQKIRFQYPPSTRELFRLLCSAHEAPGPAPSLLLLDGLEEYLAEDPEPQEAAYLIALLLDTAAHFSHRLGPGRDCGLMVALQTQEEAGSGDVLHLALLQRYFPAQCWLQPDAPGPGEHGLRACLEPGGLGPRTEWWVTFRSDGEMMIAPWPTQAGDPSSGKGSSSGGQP
T4 sequence 2: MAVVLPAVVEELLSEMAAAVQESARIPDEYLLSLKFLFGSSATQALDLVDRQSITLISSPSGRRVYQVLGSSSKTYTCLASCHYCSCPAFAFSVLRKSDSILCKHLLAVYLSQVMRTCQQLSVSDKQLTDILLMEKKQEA
Described as above. Conditions: protein: recombinant;recombinant, tags: N-terminal 6xHis-TEV, cleaved;none, copies: 1;1.

Data set [7] has as its target T3, SWSAP1 D96A (Walker B);hSWS1. In words: fluorescence polarization; no nucleotide; FPA: 5 nM 6-FAM DNA, 37 C, 2 mM nucleotide where stated (buffer not given in material); EMSA: 0.05 uM 6-FAM DNA, 5%/15% native PAGE; RAD51 filaments: 2 mM ATP. Conditions: protein: recombinant;recombinant, tags: N-terminal 6xHis-TEV, cleaved;none, copies: 1;1.
Data set [8] has as its target T4, SWSAP1 K18A (Walker A);hSWS1. The data set is described as above. Conditions: protein: recombinant;recombinant, tags: N-terminal 6xHis-TEV, cleaved;none, copies: 1;1.
Data set [9] addresses T2, SWSAP1 (hSWS1-SWSAP1, WT);hSWS1. Briefly: fluorescence polarization; 2 mM ADP; FPA: 5 nM 6-FAM DNA, 37 C, 2 mM nucleotide where stated (buffer not given in material); EMSA: 0.05 uM 6-FAM DNA, 5%/15% native PAGE; RAD51 filaments: 2 mM ATP. As to conditions: protein: recombinant;recombinant, tags: N-terminal 6xHis-TEV, cleaved;none, copies: 1;1.
In data set [10] the target is T3, SWSAP1 D96A (Walker B);hSWS1. The data set is described as above. As to conditions: protein: recombinant;recombinant, tags: N-terminal 6xHis-TEV, cleaved;none, copies: 1;1.
Data set [11] addresses T4, SWSAP1 K18A (Walker A);hSWS1. The description is as above. As to conditions: protein: recombinant;recombinant, tags: N-terminal 6xHis-TEV, cleaved;none, copies: 1;1.
The target in data set [12] is T1, RAD51. In words: competition (fluorescence intensity); 2 mM ATP; 100x unlabeled dT39 lowers signal ~30%; FPA: 5 nM 6-FAM DNA, 37 C, 2 mM nucleotide where stated (buffer not given in material); EMSA: 0.05 uM 6-FAM DNA, 5%/15% native PAGE; RAD51 filaments: 2 mM ATP. Conditions: protein: recombinant; tags: none; chain copies: 10; label: 3' 6-FAM.
Setting [13] is: label: 3' 6-FAM on strand 1, 5' overhang 20 nt.
Where [14] appears, read: label: 3' 6-FAM on strand 1, fork 1:2, 19 bp duplex, 20 nt arms.
Setting [15] is: label: 3' 6-FAM on strand 1, blunt.
The mark [16] stands for this setting: label: 5' 6-FAM on strand 1, blunt.
The mark [17] stands for this setting: label: 3' 6-FAM on strand 1, 3' overhang 20 nt.

T1 sequence (Q06609 whole entry): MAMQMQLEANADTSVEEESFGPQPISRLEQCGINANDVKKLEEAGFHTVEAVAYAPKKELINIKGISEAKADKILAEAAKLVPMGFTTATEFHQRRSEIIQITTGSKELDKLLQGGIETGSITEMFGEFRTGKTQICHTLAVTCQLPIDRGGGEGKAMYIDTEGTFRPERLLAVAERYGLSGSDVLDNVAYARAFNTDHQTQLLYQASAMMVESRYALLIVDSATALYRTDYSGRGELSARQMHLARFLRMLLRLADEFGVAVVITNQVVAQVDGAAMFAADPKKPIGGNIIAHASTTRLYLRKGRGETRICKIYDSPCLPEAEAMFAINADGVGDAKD
Sequence of RAD51;SWSAP1 (hSWS1-SWSAP1, WT);hSWS1 (Q06609 whole entry, one chain of several): as the sequence (Q06609 whole entry) above

On to TTTTTTTTTTTTTTTTTTTTTTTTTTTTTT (ssDNA) [*5'-(T)30], for which the binding result (in the data set with RAD51 [1] (label: 5' 6-FAM); in [2] (label: 5' 6-FAM)) was “binds” each time.

Turning to ACTGCCCTTACAGCACAGCGGTTTTTTTTTT (ssDNA) [ss31], the dissociation constant Kd (as a rule, the equilibrium constant for the complex coming apart) in data set [3] (label: 5' 6-FAM) is 5.7 ± 0.3 µM.

Consider TTTTTTTTTTTTTTTTTTTTCTTGACAAGCTTGCGCACT (ssDNA) [ss39], for which the Kd was 6.9 ± 0.7 µM in [4] (label: 3' 6-FAM); 7.8 ± 0.4 µM in data set [5] (label: 3' 6-FAM); 9.5 ± 0.7 µM in [6] (label: 3' 6-FAM); 11.2 ± 0.4 µM in data set [3] (label: 3' 6-FAM); 10.4 ± 0.7 µM in data set [7] (label: 3' 6-FAM); 9.9 ± 0.4 µM in data set [8] (label: 3' 6-FAM). Further, the dissociation constant (Kd) in data set [9] (label: 3' 6-FAM) stood at 3.2 ± 0.2 µM; in [10] (label: 3' 6-FAM), 3.9 ± 0.3 µM; in data set [11] (label: 3' 6-FAM), 7.4 ± 0.2 µM.

B1: 5'-overhang (dsDNA)
DNA 1: TTTTTTTTTTTTTTTTTTTTCTTGACAAGCTTGCGCACT
DNA 2: AGTGCGCAAGCTTGTCAAG
With B1, the Kd stood at 3.6 ± 0.1 µM in data set [4] (setting [13]); 4.3 ± 0.4 µM in data set [5] (setting [13]); 3.9 ± 0.2 µM in data set [6] (setting [13]); 3.6 ± 0.2 µM in data set [3] (setting [13]); 3.8 ± 0.2 µM in data set [7] (setting [13]); 3.9 ± 0.3 µM in [8] (setting [13]). Moreover, the Kd in [9] (setting [13]) amounted to 8.9 ± 0.4 µM; in data set [10] (setting [13]), 5.1 ± 0.2 µM; in data set [11] (setting [13]) it was 3.4 ± 0.3 µM.

B2: Fork (dsDNA)
DNA 1: TTTTTTTTTTTTTTTTTTTTCTTGACAAGCTTGCGCACT
DNA 2: AGTGCGCAAGCTTGTCAAGGCACTTTTTTTTTTTTTTTT
Regarding B2, the dissociation constant (Kd) in [4] (setting [14]) is 18.6 ± 0.7 µM; in data set [5] (setting [14]), 22.4 ± 0.4 µM; in data set [6] (setting [14]), 8.2 ± 0.4 µM; in data set [3] (setting [14]), 7.7 ± 0.5 µM; in [7] (setting [14]) it was 7.4 ± 0.4 µM; in data set [8] (setting [14]), 4.6 ± 0.4 µM. The Kd in data set [9] (setting [14]) came to 25.6 ± 0.7 µM; in data set [10] (setting [14]), 33.9 ± 0.9 µM; in [11] (setting [14]), 7 ± 0.8 µM.

B3: ds39 (dsDNA)
DNA 1: TTTTTTTTTTTTTTTTTTTTCTTGACAAGCTTGCGCACT
DNA 2: AGTGCGCAAGCTTGTCAAGAAAAAAAAAAAAAAAAAAAA
B3: the Kd in data set [6] (setting [15]) amounted to 10 ± 0.9 µM; in data set [3] (setting [15]), 19.2 ± 0.9 µM; in data set [7] (setting [15]), 13.6 ± 0.6 µM; in data set [8] (setting [15]), 12.2 ± 1 µM; in data set [11] (setting [15]), 8.73 ± 0.7 µM.

B4: ds26 (dsDNA)
DNA 1: ACTGCCCTTACAGCACAGCGGTTTTT
DNA 2: AAAAACCGCTGTGCTGTAAGGGCAGT
Regarding B4, the Kd in [3] (setting [16]) was 18.8 ± 0.7 µM.

Regarding ACTTACAGCACAGCGGTTTTT (ssDNA) [ss21], the Kd in data set [3] (label: 5' 6-FAM) came out at 10.1 ± 0.9 µM.

Regarding TTTTTTTTTTTTTTTTTTTTTTTTTTTTTTTTTTTTTTT (ssDNA) [*3'-(T)39], in the data set with RAD51 [12], the binding result is recorded as “binds”.

Regarding ACTGCCCTTACAGCACAGCGGTTTTT (ssDNA) [ss26], in data set [3] (label: 5' 6-FAM), the Kd came to 9.9 ± 0.6 µM.

B5: ds21 (dsDNA)
DNA 1: ACTTACAGCACAGCGGTTTTT
DNA 2: AAAAACCGCTGTGCTGTAAGT
Turning to B5, the Kd in data set [3] (setting [16]) was determined as 43.7 ± 0.4 µM.

Take TTTTTTTTTTTTTTTTTTTTTTTTTTTTTT (ssDNA) [*3'-(T)30]: the binding result (in the data set with RAD51 [1] (label: 3' 6-FAM); in [2] (label: 3' 6-FAM)) was “binds” each time.

B6: 3'-overhang (dsDNA)
DNA 1: CTTGACAAGCTTGCGCACT
DNA 2: AGTGCGCAAGCTTGTCAAGGCACTTTTTTTTTTTTTTTT
For B6, the dissociation constant Kd was determined as 7.3 ± 0.6 µM in data set [6] (setting [17]); 14.9 ± 0.7 µM in [3] (setting [17]); 11 ± 0.8 µM in [7] (setting [17]); 7.1 ± 0.2 µM in [8] (setting [17]); 8.7 ± 0.4 µM in data set [11] (setting [17]).
